The values below come from patent US20030120038A1 (MERCK, published 2003).

The target of test [1] is T1, Ex-KDR, purified extracellular domain of the KDR VEGF receptor (UniProt P35968 20-764, limits assumed).
T1 construct: extracellular domain; It may be the same construct; also called extracellular region of KDR
The experiment in a line: covalent crosslinking (BS3) of purified Ex-KDR with [125I]PlGF, SDS/PAGE. As to the method: The reactions were then crosslinked with 1 mM BS³ at 25° C. for 15 min followed by the addition of boiling Laemmli sample buffer (10). The crosslinked products were analyzed by SDS/7.5% PAGE and the complexes were visualized using a Phosphohnager (Molecular Dynamics, Sunnyvale, Calif.).
The reactions were then crosslinked with 1 mM BS³ at 25° C. for 15 min followed by the addition of boiling Laemmli sample buffer. The crosslinked products were analyzed by SDS/7.5% PAGE and the complexes were visualized using a Phosphohnager (Molecular Dynamics, Sunnyvale, Calif.).

Test [2] has as its target T2, sVEGF-RI, natural soluble form of the FLT VEGF receptor, expressed by baculovirus in Sf9 insect cells (human, UniProt P17948 27-656).
T2 construct: also called sFLT; sFlt
In words: 96 well plate competition, immobilized sFLT, tracer [125I]PlGF, competitor unlabeled PlGF. The protocol: (§1) Briefly, sVEGF-RI, 50 to […] partially purified by Mono Q chromatography (Pharmacia), was diluted to 10 ml in 25 mM TRIS, pH 7.4, 100 mM NaCl, 20 mM NH₄HCO_{3.} Aliquots ([…]) were absorbed to the surface of a 96 well plate for 18 hours at 4° C., the plates were then washed twice with blocking buffer (DME, 25 mM HEPES, pH 7.5, 0.5% gelatin) and the nonspecific sites were blocked in the same buffer for 6 hours at 4° C. The plate was then washed twice in binding buffer. […] The wells were washed three times with […] of binding buffer, the bound protein was solubilized with […] of 1% SDS, 0.5% BSA and counted in a g counter. The results, shown in FIG. 7, were analyzed by the method of Scatchard [Scatchard, G., (1949) Ann. N.Y. Acad. Sci., 51, pp. 660-672].

Test [3] concerns the target T2, sVEGF-RI, natural soluble form of the …. The experiment in a line: 96 well plate competition, immobilized sFLT; reference is PlGF displacing [125I]PlGF. The protocol:
as §1

The target is the same in test [4]. The experiment in a line: 96 well plate competition, immobilized sFLT, tracer [125I]VEGF, competitor unlabeled PlGF. As to the method:
as §1

Test [5] has the same target. In words: 96 well plate competition, immobilized sFLT, tracer [125I]PlGF, competitor unlabeled VEGF. The protocol: as §1
Test [6] shares this target. The experiment in a line: 96 well plate assay, sVEGF-RI absorbed to the plate, various amounts of [125I]VEGF, Scatchard analysis. As to the method: as §1

As usually defined, the IC50 is the midpoint of a concentration-inhibition curve. Broadly, the Kd is the free concentration of one partner at which half of the binding sites on the other are occupied at equilibrium, for simple one-to-one binding. Higher therefore signals weaker binding.

T2 sequence (P17948 other isoform, or with tags, fused parts or gaps): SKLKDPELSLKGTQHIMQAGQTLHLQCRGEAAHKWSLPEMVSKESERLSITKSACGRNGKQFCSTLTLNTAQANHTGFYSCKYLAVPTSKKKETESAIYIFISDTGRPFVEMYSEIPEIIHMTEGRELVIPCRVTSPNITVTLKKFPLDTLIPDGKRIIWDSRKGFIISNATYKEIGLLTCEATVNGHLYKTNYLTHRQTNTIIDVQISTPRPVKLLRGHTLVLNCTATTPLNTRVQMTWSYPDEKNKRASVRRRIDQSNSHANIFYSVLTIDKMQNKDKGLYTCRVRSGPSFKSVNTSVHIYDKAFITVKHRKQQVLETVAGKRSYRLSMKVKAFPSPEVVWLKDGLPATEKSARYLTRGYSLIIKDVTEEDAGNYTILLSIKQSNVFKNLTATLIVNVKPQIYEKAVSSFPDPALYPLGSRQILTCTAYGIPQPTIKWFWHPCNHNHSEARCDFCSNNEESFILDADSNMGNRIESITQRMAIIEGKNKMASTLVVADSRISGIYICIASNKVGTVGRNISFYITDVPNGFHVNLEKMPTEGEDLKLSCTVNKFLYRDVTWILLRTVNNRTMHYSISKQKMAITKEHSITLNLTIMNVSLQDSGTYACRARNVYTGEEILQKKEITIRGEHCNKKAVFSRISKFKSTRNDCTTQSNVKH
T1 sequence (P35968 20-764 limits assumed): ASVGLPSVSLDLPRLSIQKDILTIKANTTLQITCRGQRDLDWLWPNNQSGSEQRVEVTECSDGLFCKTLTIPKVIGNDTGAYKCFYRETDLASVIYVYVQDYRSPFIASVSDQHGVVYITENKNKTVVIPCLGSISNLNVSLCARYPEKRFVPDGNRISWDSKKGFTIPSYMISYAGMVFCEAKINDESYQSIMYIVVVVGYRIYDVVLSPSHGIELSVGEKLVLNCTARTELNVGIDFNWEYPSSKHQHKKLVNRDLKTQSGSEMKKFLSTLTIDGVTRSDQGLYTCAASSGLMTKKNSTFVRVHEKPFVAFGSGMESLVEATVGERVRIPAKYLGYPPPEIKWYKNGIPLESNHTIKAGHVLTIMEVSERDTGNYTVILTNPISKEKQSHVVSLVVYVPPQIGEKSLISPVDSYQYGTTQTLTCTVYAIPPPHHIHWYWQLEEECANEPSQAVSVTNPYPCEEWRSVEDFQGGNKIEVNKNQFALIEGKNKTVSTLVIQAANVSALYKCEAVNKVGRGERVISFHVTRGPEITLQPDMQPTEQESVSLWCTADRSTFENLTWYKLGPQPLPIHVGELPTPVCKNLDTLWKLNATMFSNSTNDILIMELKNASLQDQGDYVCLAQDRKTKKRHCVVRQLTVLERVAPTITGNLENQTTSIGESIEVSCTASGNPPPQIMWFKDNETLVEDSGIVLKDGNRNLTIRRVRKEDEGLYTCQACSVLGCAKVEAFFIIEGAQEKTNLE

B1: recombinant human PlGF (ligand, UniProt P49763-2 19-149, looked up)
chain: LPAVPPQQWALSAGNGSSEVEVVPFQEVWGRSYCRALERLVDVVSEYPSEVEHMFSPSCVSLLRCTGCCGDENLHCVPVETANVTMQLLKIRSGDRPSYVELTFSQHVRCECRPLREKMKPERCGDAVPRR
modifications: 125I label (chloramine T method) in the tracer form
notes: also called PIGF
Take B1: in test [1], the binding result is “no binding”. The IC50 was around 0.11 nM in test [2] and around 0.55 nM in test [4]. Also, the “fold higher concentration to displace 50% of [125I]VEGF than of [125I]PlGF” value in test [3] is around 5 fold.

B2: human recombinant vascular endothelial cell growth factor (VEGF) (ligand, UniProt P15692-4 27-191, looked up)
chain: APMAEGGGQNHHEVVKFMDVYQRSYCHPIETLVDIFQEYPDEIEYIFKPSCVPLMRCGGCCNDEGLECVPTEESNITMQIMRIKPHQGQHIGEMSFLQHNKCECRPKKDRARQENPCGPCSERRKHLFVQDPQTCKCSCKNTDSRCKARQLELNERTCRCDKPRR
modifications: 125I label (chloramine T method) in the tracer form
notes: also called unlabeled VEGF
In test [5], B2 registered an IC50 of 0.01 nM. The molecule further came in with a Kd in test [6] of around 0.02 nM.
